Measured values from article PMC7617732 (Science translational medicine, 2024).

T1: 3FTx-L15 (recombinant long-chain three-finger α-neurotoxin variant) (Ophiophagus hannah (king cobra), long …)
T1 chain: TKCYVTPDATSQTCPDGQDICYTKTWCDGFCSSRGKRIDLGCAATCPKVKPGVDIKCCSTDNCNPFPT


Molecular target: T1, 3FTx-L15 (recombinant long-chain …)

Row | Binder | Kd [nM] | binding result
1 | 95Mat2 (antibody, V domains shown) VH: QVQLVQSGAEVKKPGSSVKVSCKASGGTFSSYAISWVRQAPGQGLEWMGGIIPIFGTANYAQKFQGRVTITADESTSTAYMELSSLRSEDTAVYYCARIPLVWYESGPYESGVFDYWGQGTLVTVSS VL: not shown | 0.1 | 
2 | 95Mat4 (antibody, V domains shown) VH: QVQLVQSGAEVKKPGSSVKVSCKASGGTFSSYAISWVRQAPGQGLEWMGGIIPIFGTANYAQKFQGRVTITADESTSTAYMELSSLRSEDTAVYYCARIPLHWYESGPYESGVFDYWGQGTLVTVSS VL: not shown |  | binds
3 | 95Mat3 (antibody, V domains shown) VH: QVQLVQSGAEVKKPGSSVKVSCKASGGTFSSYAISWVRQAPGQGLEWMGGIIPIFGPANYAQKFQGRVTITADESTSTAYMELSSLRSEDTAVYYCARIPLVWYESGPYESGVFDYWGQGTLVTVSS VL: not shown |  | binds
4 | 95Mat6 (antibody, V domains shown) VH: QVQLVQSGAEVKKPGSSVKVSCKASGGTFSSYAISWVRQAPGQGLEWMGGIIPIFGHANYAQKFQGRVTITADESTSTAYMELSSLRSEDTAVYYCARIPLIWYESGPYESGVFDYWGQGTLVTVSS VL: not shown | 0.103 | 
